# Laboratory results reported in article PMC9482650, “Quantitative fragmentomics allow affinity mapping of interactomes” (Nature Communications, 2022).
# T1: SIPA1L2, Q9P2F8
# T1 sequence (Q9P2F8 945-1036, limits assumed, looked up): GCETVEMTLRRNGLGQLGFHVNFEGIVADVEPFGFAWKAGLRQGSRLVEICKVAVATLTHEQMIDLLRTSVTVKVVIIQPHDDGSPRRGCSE
# T2: PCLO, Q9Y6V0
# T2 sequence (Q9Y6V0 4491-4600, limits assumed, looked up): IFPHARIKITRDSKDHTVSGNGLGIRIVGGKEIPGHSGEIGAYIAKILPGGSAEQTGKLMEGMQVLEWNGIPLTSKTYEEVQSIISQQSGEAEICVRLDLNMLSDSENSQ
# T3: GRIP1_7, Q9Y3R0
# T3 sequence (Q9Y3R0 999-1096, limits assumed, looked up): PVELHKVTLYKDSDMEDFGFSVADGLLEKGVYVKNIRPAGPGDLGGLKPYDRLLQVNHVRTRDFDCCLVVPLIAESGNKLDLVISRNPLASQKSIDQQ
# T4: PARD3B_1, Q8TEW8
# T4 sequence (Q8TEW8 196-299, limits assumed, looked up): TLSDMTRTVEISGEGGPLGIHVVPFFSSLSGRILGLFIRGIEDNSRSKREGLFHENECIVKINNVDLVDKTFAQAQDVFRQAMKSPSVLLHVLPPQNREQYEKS
# T5: DLG3_1, Q92796
# T5 sequence (Q92796 125-227, limits assumed, looked up): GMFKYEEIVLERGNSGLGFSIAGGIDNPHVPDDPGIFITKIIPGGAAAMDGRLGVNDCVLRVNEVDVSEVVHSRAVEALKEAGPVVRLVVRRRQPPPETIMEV
# T6: MPDZ_10, O75970
# T6 sequence (O75970 1624-1722, limits assumed, looked up): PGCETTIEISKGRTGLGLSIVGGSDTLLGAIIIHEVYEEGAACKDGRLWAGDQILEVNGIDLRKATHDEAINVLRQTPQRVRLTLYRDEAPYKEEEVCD
# T7: TIAM2, Q8IVF5
# T7 sequence (Q8IVF5 885-986, limits assumed, looked up): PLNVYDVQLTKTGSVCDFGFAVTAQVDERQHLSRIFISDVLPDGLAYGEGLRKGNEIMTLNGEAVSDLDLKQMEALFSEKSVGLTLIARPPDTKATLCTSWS
# T8: LNX2_2, Q8N448
# T8 sequence (Q8N448 334-432, limits assumed, looked up): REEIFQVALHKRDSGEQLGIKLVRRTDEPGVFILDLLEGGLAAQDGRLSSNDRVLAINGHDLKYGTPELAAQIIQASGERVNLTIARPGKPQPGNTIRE
# T9: DFNB31_3, Q9P202
# T9 sequence (Q9P202 811-907, limits assumed, looked up): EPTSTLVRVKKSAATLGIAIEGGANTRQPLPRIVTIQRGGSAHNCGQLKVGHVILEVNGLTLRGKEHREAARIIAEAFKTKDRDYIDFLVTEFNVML
# T10: GRIP1_4, Q9Y3R0
# T10 sequence (Q9Y3R0 467-571, limits assumed, looked up): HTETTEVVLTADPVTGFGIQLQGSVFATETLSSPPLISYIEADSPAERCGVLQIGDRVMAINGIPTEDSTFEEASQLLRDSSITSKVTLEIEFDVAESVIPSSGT
# T11: LRRC7, Q96NW7
# T11 sequence (Q96NW7 1440-1537, limits assumed, looked up): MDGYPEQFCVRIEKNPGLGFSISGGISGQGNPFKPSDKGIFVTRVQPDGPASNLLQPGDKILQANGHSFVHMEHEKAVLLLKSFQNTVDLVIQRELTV
# Columns and labels:
# Assay in all cases: holdup assay
# Parameters in all cases: key: below the threshold = too weak to quantify, mostly under pKd 3.1 to 4
# Settings in all cases: plain residues with an end cap or a label only (N-terminal biotin on a linker: ado-ado)
# SIPA1L2, Q9P2F8 = target: T1, SIPA1L2, Q9P2F8
# PDLIM1, O00151 = target: PDLIM1, O00151
# Chain of PDLIM1, O00151 (O00151 1-87): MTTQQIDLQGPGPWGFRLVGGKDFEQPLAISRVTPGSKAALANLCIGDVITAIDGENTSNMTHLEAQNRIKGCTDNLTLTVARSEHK
# PCLO, Q9Y6V0 = target: T2, PCLO, Q9Y6V0
# MAGI2_6, Q86UL8 = target: MAGI2_6, Q86UL8
# Chain of MAGI2_6, Q86UL8 (Q86UL8 1141-1229): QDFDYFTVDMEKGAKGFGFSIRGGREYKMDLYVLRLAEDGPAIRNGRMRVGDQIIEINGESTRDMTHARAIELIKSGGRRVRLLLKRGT
# GRIP1_7, Q9Y3R0 = target: T3, GRIP1_7, Q9Y3R0
# Inadl_1, Q8NI35 = target: Inadl_1, Q8NI35
# Chain of Inadl_1, Q8NI35 (Q8NI35 113-229): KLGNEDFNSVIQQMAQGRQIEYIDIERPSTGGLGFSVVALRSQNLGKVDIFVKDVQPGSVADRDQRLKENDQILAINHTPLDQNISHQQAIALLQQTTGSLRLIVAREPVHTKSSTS
# HTRA1, Q92743 = target: HTRA1, Q92743
# Chain of HTRA1, Q92743 (Q92743 360-477): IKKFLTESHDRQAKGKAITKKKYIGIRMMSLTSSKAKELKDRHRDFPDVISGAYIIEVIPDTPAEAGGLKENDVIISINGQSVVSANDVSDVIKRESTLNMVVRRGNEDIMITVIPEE
# DLG2_2, Q15700 = target: DLG2_2, Q15700
# Chain of DLG2_2, Q15700 (Q15700 189-283): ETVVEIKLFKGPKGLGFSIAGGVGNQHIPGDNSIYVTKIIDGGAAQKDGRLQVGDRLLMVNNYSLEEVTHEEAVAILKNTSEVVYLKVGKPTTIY
# DLG4_2, P78352 = target: DLG4_2, P78352
# Chain of DLG4_2, P78352 (P78352 155-259): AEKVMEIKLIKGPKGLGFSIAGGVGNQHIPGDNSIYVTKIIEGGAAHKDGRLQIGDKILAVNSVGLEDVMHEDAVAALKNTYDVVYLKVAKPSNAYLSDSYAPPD
# MAGI2_3, Q86UL8 = target: MAGI2_3, Q86UL8
# Chain of MAGI2_3, Q86UL8 (Q86UL8 600-682): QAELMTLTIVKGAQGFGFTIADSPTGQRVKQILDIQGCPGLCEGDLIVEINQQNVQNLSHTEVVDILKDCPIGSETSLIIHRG
# SCRIB_2, Q14160 = target: SCRIB_2, Q14160
# Chain of SCRIB_2, Q14160 (Q14160 857-960): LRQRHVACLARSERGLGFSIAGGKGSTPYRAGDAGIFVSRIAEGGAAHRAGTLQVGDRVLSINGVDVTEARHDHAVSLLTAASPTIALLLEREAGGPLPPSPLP
# PARD3B_1, Q8TEW8 = target: T4, PARD3B_1, Q8TEW8
# DLG3_1, Q92796 = target: T5, DLG3_1, Q92796
# MPDZ_10, O75970 = target: T6, MPDZ_10, O75970
# DLG1_1, Q12959 = target: DLG1_1, Q12959
# TIAM2, Q8IVF5 = target: T7, TIAM2, Q8IVF5
# LAP2, Q96RT1 = target: LAP2, Q96RT1
# Chain of LAP2, Q96RT1 (Q96RT1 other isoform, or with tags, fused parts or gaps): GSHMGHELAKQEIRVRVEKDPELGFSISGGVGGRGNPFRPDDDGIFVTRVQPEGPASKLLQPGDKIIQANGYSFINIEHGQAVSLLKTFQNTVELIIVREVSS
# LNX2_2, Q8N448 = target: T8, LNX2_2, Q8N448
# NOS1, P29475 = target: NOS1, P29475
# Chain of NOS1, P29475 (P29475 9-101): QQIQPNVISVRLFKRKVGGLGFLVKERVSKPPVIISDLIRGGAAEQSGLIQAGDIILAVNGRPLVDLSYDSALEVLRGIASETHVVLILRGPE
# AHNAK1, Q09666 = target: AHNAK1, Q09666
# Chain of AHNAK1, Q09666 (Q09666 4-100): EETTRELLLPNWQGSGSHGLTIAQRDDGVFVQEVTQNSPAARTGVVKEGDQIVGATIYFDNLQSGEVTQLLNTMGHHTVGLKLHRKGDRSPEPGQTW
# DFNB31_3, Q9P202 = target: T9, DFNB31_3, Q9P202
# GRIP1_4, Q9Y3R0 = target: T10, GRIP1_4, Q9Y3R0
# SCRIB_3, Q14160 = target: SCRIB_3, Q14160
# Chain of SCRIB_3, Q14160 (Q14160 999-1103): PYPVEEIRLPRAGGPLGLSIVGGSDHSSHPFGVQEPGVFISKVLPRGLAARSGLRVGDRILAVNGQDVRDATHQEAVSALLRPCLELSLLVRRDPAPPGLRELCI
# TJP1_2, Q07157 = target: TJP1_2, Q07157
# Chain of TJP1_2, Q07157 (Q07157 181-274): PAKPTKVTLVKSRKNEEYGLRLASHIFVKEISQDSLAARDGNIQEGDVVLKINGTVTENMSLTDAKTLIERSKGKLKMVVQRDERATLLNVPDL
# NHERF4_2, Q86UT5 = target: NHERF4_2, Q86UT5
# Chain of NHERF4_2, Q86UT5 (Q86UT5 220-308): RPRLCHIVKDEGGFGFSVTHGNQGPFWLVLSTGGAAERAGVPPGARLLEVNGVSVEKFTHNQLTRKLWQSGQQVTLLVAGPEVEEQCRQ
# GRID2IP_1, A4D2P6 = target: GRID2IP_1, A4D2P6
# Chain of GRID2IP_1, A4D2P6 (A4D2P6 1-87): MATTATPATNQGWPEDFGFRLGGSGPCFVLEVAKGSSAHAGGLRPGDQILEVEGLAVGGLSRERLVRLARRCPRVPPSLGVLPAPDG
# LRRC7, Q96NW7 = target: T11, LRRC7, Q96NW7
"pKd (SIPA1L2, Q9P2F8)","pKd (PDLIM1, O00151)","pKd (PCLO, Q9Y6V0)","pKd (MAGI2_6, Q86UL8)","pKd (GRIP1_7, Q9Y3R0)","pKd (Inadl_1, Q8NI35)","pKd (HTRA1, Q92743)","pKd (DLG2_2, Q15700)","pKd (DLG4_2, P78352)","pKd (MAGI2_3, Q86UL8)","pKd (SCRIB_2, Q14160)","pKd (PARD3B_1, Q8TEW8)","pKd (DLG3_1, Q92796)","pKd (MPDZ_10, O75970)","pKd (DLG1_1, Q12959)","pKd (TIAM2, Q8IVF5)","pKd (LAP2, Q96RT1)","pKd (LNX2_2, Q8N448)","pKd (NOS1, P29475)","pKd (AHNAK1, Q09666)",Binder,other results
below the threshold,below the threshold,below the threshold,below the threshold,below the threshold,below the threshold,below the threshold,below the threshold,below the threshold,below the threshold,below the threshold,below the threshold,below the threshold,below the threshold,below the threshold,below the threshold,below the threshold,below the threshold,below the threshold,below the threshold,"ADRDHASDQL [CTBP1, Q13363]","pKd (DFNB31_3, Q9P202): 3.97; pKd (GRIP1_4, Q9Y3R0): below the threshold; pKd (SCRIB_3, Q14160): below the threshold; pKd (TJP1_2, Q07157): below the threshold; pKd (NHERF4_2, Q86UT5): below the threshold; pKd (GRID2IP_1, A4D2P6): below the threshold; pKd (LRRC7, Q96NW7): below the threshold"
below the threshold,below the threshold,below the threshold,4.02,below the threshold,below the threshold,3.84,3.9,4.27,3.54,4.11,below the threshold,3.69,3.62,4.02,below the threshold,3.65,4.15,3.72,below the threshold,"GSSSKEGTSV [RRBP1, Q9P2E9]","pKd (DFNB31_3, Q9P202): 3.96; pKd (GRIP1_4, Q9Y3R0): below the threshold; pKd (SCRIB_3, Q14160): 4.23; pKd (TJP1_2, Q07157): below the threshold; pKd (NHERF4_2, Q86UT5): below the threshold; pKd (GRID2IP_1, A4D2P6): below the threshold; pKd (LRRC7, Q96NW7): below the threshold"
